Results on 1 molecule are retold here after patent US20220332804A1 (CSL INNOVATION, published 2022).

Test in all cases: SPR, antibody captured, C2 as analyte;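 note: biacore SPR at 37 °C, anti-C2 mAbs captured via goat anti-human IgG on CM5 chips, double-referenced sensorgrams fit to a 1:1 kinetic or steady-state model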
For assay [1], the target named is T1, human C2 A717S (human, UniProt P06681 21-752).
T1 sequence: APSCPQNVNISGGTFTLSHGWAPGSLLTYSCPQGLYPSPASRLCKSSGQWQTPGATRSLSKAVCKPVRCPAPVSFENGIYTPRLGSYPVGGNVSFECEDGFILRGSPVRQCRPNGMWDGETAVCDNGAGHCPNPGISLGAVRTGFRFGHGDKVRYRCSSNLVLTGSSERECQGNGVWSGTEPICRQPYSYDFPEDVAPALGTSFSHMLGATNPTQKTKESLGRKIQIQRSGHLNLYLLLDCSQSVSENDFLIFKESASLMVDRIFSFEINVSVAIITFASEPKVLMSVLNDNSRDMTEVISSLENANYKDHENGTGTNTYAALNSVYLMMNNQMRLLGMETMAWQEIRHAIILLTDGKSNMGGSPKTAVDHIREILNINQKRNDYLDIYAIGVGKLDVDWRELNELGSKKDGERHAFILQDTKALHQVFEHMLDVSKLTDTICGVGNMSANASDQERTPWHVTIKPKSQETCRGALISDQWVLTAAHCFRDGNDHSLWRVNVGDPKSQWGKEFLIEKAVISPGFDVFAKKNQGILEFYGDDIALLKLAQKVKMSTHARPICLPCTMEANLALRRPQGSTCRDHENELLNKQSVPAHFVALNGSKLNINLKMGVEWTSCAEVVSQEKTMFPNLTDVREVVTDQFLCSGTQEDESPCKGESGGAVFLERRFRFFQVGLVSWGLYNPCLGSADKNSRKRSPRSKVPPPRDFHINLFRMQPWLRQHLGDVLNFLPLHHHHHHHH

For assay [2], the target named is T2, human C2 T317A (human, UniProt P06681 21-752).
T2 sequence: T1 sequence with T297A, S697A

The target of assay [3] is T3, human C2 K329A (human, UniProt P06681 21-752).
T3 sequence: T1 sequence with K309A, S697A

Assay [4] concerns the target T4, human C2 L620A (human, UniProt P06681 21-752).
T4 sequence: T1 sequence with L600A, S697A

Numbering of substitutions follows the chain as printed.

B1: RF16-226 (antibody, human IgG4 S228P, lambda)
heavy: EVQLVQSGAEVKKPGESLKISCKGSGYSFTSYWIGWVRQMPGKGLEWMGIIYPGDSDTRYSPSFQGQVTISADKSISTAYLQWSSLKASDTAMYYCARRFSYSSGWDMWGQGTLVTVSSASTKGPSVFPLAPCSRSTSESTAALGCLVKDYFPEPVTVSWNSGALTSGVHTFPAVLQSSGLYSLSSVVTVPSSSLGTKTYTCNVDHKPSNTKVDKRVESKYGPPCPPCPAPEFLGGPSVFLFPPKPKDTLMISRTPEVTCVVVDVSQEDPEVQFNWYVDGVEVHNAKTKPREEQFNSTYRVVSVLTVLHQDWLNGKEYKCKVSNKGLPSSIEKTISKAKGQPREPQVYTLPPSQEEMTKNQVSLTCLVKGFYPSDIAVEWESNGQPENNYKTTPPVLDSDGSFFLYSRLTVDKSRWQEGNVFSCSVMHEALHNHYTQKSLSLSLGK
light: SYELTQPPSVSVSPGQTARITCSGDALTSKYVAWYQQKSGLAPLLVIYEDTRRPSGIPAKFSGSSSGSVATLTISGAHGDDEADYYCYSTDASGHQRVFGGGTKLTVLSQPKAAPSVTLFPPSSEELQANKATLVCLISDFYPGAVTVAWKADGSPVKAGVETTKPSKQSNNKYAASSYLSLTPEQWKSHRSYSCQVTHEGSTVEKTVAPTECS
notes: pH-dependent anti-C2 antibody from a phage display library; also called WT
On to B1, for which the Kd in assay [1] was found to be 406 nM; in assay [2], 9 nM; in assay [3], 25.6 nM; in assay [4] it was 11.1 nM.
